Measured values as given in article PMC10201420, “Structural basis for guide RNA selection by the RESC1–RESC2 complex”.

T1: RESC1;RESC2 (Trypanosoma brucei;Trypanosoma brucei, UniProt Q57XL7;Q586X1 22-473;33-492, |)
T1 sequence 1: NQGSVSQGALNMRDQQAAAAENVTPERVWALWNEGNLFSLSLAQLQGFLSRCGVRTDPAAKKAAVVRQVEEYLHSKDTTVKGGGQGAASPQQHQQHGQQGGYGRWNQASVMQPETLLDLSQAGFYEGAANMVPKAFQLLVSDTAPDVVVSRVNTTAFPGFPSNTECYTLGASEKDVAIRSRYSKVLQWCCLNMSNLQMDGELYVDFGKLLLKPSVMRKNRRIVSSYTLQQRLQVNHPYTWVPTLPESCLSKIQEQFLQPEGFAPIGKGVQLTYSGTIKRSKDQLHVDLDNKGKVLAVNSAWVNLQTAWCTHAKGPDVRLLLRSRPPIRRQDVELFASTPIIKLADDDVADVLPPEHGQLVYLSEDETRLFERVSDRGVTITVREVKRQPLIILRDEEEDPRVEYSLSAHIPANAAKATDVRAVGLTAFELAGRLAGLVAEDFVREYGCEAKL
T1 sequence 2: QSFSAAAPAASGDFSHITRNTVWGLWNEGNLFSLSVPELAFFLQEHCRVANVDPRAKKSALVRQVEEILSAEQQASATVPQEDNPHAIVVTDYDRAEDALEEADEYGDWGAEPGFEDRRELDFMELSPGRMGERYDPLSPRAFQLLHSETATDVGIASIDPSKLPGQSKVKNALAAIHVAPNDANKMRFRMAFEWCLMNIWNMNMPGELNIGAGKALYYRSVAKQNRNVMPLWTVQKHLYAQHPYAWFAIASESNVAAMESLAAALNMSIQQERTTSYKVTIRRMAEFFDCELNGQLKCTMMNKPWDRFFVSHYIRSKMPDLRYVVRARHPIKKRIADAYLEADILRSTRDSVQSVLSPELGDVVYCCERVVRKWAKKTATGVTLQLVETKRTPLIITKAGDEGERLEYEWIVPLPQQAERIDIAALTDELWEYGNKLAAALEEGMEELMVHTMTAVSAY


Tests used:
RESC1;RESC2 K311S/R402D = RESC1;RESC2 K311S/R402D (Trypanosoma brucei;Trypanosoma brucei, UniProt Q57XL7;Q586X1 22-473;33-492, |K311S;R402D); assay: analytical SEC; SEC: 20 mM HEPES pH 7.5, 2 mM MgCl2, 1 mM DTT, variable NaCl; purification at 4 C; exact binding assay salt and temperature not in material; settings: protein: recombinant;recombinant; tags: N-terminal 6xHis-3C (cleaved when needed);none; copies: 1;1
RESC1;RESC2 = biological target: T1, RESC1;RESC2; assay: as above; settings: protein: recombinant;recombinant; tags: N-terminal 6xHis-3C (cleaved when needed);none; copies: 1;1

Binder	binding result (RESC1;RESC2 K311S/R402D)	binding result (RESC1;RESC2)
gRNA gND7(506), 5'-triphosphate (ssRNA, 5'-triphosphate) RNA: GGGAUAUAAAUACGAUGUAAAUAACCUGUAGUAUAGUUAGUGUAUAUAGUGAAA	no binding	binds
gRNA gND7(506), 5'-hydroxyl (ssRNA, 5'-OH, no triphosphate) RNA: GGGAUAUAAAUACGAUGUAAAUAACCUGUAGUAUAGUUAGUGUAUAUAGUGAAA		no binding
